The subject of experiment [1] is ADAM 23 mediated adhesion of NB100 neuroblastoma cells. Description: Inhibition of ADAM 23 mediated adhesion of NB100 cells. It is filed as cell-based, human. The conditions noted are these: NB100 cells incubated with peptide (20 or 40 μg/ml) prior to seeding. How it is done:
Cell adhesion assays were performed in accordance with procedures described by Luque et al. (FEBS Lett 1994 346:278-284). In these assays, 96-well immunoplates (MaxiSorp, Nunc, Denmark) were coated with 0.1 ml of PBS containing different amounts of BSA, glutathione S-transferase (GST), and ADAM 23/GST. After incubating 16 hours at 4° C., wells were blocked with DMEM containing 2.5% BSA, for 2 hours at 37° C. Then, NB100 neuroblastoma cells (approximately 50,000 cells per well) were added in Dulbecco's modified Eagle's medium (DMEM) supplemented with 1% BSA and incubated at 37° C. for 2 hours. For experiments directed to analyze the effect of divalent cations, the cells were washed three times in PBS, and resuspended in the same buffer supplemented either with 1 mM MgCl2, 50 μM MnCl2, 1 mM CaCl2, or 1 mM MgCl2 plus 5 mM EDTA. Non-bound cells were removed by rinsing the wells with serum-free medium, whereas bound cells were fixed with methanol and stained with Giemsa. Cells were counted per unit area with the aid of an inverted light microscope, using a 20× high powered objective and an ocular grid. […] In all cases, experimental treatments were performed in triplicate with a minimum of three areas counted per well.

In experiment [2] the test system is NB100 human neuroblastoma cells. The experiment is described as follows: Cell adhesion assay on coated wells, NB100 cells. It is filed as cell-based. The conditions noted are these: for cell adhesion to wells coated with the protein: bound cells stained and quantified. How it is done: Cell adhesion assays were performed in accordance with procedures described by Luque et al. (FEBS Lett 1994 346:278-284). In these assays, 96-well immunoplates (MaxiSorp, Nunc, Denmark) were coated with 0.1 ml of PBS containing different amounts of BSA, glutathione S-transferase (GST), and ADAM 23/GST. After incubating 16 hours at 4° C., wells were blocked with DMEM containing 2.5% BSA, for 2 hours at 37° C. Then, NB100 neuroblastoma cells (approximately 50,000 cells per well) were added in Dulbecco's modified Eagle's medium (DMEM) supplemented with 1% BSA and incubated at 37° C. for 2 hours. For experiments directed to analyze the effect of divalent cations, the cells were washed three times in PBS, and resuspended in the same buffer supplemented either with 1 mM MgCl2, 50 μM MnCl2, 1 mM CaCl2, or 1 mM MgCl2 plus 5 mM EDTA. Non-bound cells were removed by rinsing the wells with serum-free medium, whereas bound cells were fixed with methanol and stained with Giemsa. Cells were counted per unit area with the aid of an inverted light microscope, using a 20× high powered objective and an ocular grid. For inhibition studies cells were pretreated for 30 minutes before the addition to the coated wells of mAb LM 609 (used at 1:400 dilution of ascites) or synthetic peptides (20 or 40 μg/ml) corresponding to the disintegrin loop of ADAM 23 (AVNEDCDIT, peptide 330 (SEQ ID NO:1)) or a “scrambled” peptide (DCVTNIAE, peptide 331 (SEQ ID NO:4)). In all cases, experimental treatments were performed in triplicate with a minimum of three areas counted per well.

The next experiment has as its system endothelial cells. Description: Murine MATRIGEL plug angiogenesis model. It is filed as in vivo, female athymic (BALB/c nu/nu) mice. How it is done:
The angiogenic activity of ADAM 23 was evaluated in the murine MATRIGEL plug angiogenesis model. On day 0, ice-cold MATRIGEL (Becton-Dickinson, Bedford, Mass.) containing either vascular endothelial growth factor (VEGF, Pepro Tech, Inc., Rocky Hill, N.J.), basic fibroblast growth factor (bFGF, Pepro Tech, Inc., Rocky Hill, N.J.), […], saline buffer (PBS) or recombinant ADAM 23 disintegrin domain (dd) expressed as a GST fusion protein (GST-ADAM23dd) was implanted subcutaneously in female athymic (BALB/c nu/nu; Harlan, Indianapolis, Ind.) mice. The MATRIGEL polymerized immediately after implantation into mice forming a gel plug. On day 7, individual MATRIGEL plugs were harvested, fixed in 10% buffered formalin, embedded in paraffin, sectioned, and stained with hematoxylin-eosin. The number of endothelial cells present in each plug section was measured using a video imaging system (Image Pro-Plus, Empire Imaging, Princeton, N.J.). Fifty fields (at 20×) per plug section were randomly counted. Data are presented as “Average Number of Migrating Cells” and the p-value was determined using a two-tailed Student T-Test.

In the next experiment the test system is HT1080. The experiment is described as follows: Cell adhesion assay on coated wells, HT1080 cells. It is filed as cell-based.
In a further experiment the test system is HeLa. The experiment is described as follows: Cell adhesion assay on coated wells, HeLa cells. The class given is cell-based.
For a further experiment, the system named is T47D. Description: Cell adhesion assay on coated wells, T47D cells. The class given is cell-based.
Another experiment addresses T1, α1β1 (Homo sapiens, UniProt P05556+P56199).
T1 construct: purchased Chemicon International Inc., Temecula, Calif
Description: Sepharose bead binding of purified integrin (SDS-PAGE / Western blot). How it is done:
(§1) Purified integrins ([…] αvβ3, α1β1 or α5β1) (Chemicon International Inc., Temecula, Calif.) were incubated with Sepharose 4B beads containing 0.5 μg of disintegrin-GST, in a buffer containing 50 mM Tris-HCl, 200 mM NaCl and 0.2 mM MnCl2 (pH 7.4), for 4 hours at 37° C. After incubation, beads were washed six times with 200 μl of the same buffer to remove unbound protein. Beads were then resuspended in Laemmli buffer and after boiling, solubilized proteins were loaded in a 6% SDS-PAGE gel, and visualized by silver staining. Alternatively, samples were blotted to a nitrocellulose membrane and the presence of αv or β3 integrin subunits was detected using polyclonal antibodies raised against these subunits. Similarly, the putative presence of β1 integrin subunits was examined with the B3B11 monoclonal antibody (Chemicon International Inc.). Western-blots were visualized by enhanced chemiluminescence according to the manufacturer s instructions (ECL, Amersham).
A general note: A western blot detects proteins with antibodies after separation by electrophoresis.

The next experiment addresses T2, α5β1 (Homo sapiens, UniProt P05556+P08648).
T2 construct: purchased Chemicon International Inc., Temecula, Calif
The description is as above. How it is done:
as §1

The target in a further experiment is T3, αvβ3 integrin (Homo sapiens, UniProt P05106+P06756).
T3 construct: purchased Chemicon International Inc., Temecula, Calif
The description is as above. The conditions noted are these: confirmed by Western blot. How it is done: as §1

The values below come from patent publication US20030143692A1, “Methods and compositions for modulating integrin-mediated cell-cell interactions” (priority 2000, published 2003).

T1 sequence (P56199 29-1179): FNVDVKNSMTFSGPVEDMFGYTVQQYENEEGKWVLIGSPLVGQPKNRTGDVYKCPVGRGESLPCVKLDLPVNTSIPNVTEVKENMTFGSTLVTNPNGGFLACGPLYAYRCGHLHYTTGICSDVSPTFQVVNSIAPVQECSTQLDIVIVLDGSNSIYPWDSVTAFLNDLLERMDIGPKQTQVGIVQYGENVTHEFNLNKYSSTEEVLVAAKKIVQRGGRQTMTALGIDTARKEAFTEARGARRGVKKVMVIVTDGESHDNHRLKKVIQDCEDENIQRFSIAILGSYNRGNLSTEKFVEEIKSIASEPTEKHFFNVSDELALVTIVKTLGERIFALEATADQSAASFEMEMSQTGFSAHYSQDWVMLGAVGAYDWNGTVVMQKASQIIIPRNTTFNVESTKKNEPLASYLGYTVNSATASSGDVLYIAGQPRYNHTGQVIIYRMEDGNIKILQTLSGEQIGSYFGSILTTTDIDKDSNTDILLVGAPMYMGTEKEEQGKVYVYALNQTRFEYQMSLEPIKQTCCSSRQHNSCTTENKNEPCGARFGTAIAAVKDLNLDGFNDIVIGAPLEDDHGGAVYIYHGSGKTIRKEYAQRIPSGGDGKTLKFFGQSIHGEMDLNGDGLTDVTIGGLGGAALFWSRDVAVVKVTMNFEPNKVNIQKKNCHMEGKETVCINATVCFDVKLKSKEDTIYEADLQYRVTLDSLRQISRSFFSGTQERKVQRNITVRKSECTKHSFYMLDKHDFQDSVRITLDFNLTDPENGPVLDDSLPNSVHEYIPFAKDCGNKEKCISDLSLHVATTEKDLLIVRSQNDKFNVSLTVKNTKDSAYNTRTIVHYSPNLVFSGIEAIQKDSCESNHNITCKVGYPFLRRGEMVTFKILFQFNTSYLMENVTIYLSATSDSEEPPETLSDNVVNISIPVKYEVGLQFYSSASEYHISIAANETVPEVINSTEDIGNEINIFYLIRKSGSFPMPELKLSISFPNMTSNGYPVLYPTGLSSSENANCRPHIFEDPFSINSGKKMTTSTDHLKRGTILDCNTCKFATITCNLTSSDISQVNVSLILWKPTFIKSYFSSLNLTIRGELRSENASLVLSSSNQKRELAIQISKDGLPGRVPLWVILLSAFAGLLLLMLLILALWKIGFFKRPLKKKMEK
T1 sequence (P05556 21-798): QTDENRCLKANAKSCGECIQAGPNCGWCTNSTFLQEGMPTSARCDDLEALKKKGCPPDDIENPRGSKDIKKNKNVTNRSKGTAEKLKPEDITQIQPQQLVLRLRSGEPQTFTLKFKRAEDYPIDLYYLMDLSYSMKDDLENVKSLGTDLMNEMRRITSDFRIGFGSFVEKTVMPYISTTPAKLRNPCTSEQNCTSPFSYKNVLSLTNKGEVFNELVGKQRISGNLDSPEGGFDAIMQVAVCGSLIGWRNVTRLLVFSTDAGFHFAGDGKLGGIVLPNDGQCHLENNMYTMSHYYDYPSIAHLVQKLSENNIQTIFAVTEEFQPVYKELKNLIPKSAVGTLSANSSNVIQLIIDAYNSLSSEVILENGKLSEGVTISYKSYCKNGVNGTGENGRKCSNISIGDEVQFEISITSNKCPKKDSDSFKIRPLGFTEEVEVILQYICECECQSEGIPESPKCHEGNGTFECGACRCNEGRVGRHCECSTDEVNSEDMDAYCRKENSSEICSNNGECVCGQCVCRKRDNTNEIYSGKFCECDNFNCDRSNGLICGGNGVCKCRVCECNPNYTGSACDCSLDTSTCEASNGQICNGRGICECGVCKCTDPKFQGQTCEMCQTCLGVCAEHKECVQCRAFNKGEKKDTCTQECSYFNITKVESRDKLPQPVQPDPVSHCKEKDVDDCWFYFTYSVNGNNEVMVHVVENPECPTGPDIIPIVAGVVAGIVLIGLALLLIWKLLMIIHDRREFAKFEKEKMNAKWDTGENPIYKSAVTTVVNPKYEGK
T2 sequence (P08648 42-894 limits assumed): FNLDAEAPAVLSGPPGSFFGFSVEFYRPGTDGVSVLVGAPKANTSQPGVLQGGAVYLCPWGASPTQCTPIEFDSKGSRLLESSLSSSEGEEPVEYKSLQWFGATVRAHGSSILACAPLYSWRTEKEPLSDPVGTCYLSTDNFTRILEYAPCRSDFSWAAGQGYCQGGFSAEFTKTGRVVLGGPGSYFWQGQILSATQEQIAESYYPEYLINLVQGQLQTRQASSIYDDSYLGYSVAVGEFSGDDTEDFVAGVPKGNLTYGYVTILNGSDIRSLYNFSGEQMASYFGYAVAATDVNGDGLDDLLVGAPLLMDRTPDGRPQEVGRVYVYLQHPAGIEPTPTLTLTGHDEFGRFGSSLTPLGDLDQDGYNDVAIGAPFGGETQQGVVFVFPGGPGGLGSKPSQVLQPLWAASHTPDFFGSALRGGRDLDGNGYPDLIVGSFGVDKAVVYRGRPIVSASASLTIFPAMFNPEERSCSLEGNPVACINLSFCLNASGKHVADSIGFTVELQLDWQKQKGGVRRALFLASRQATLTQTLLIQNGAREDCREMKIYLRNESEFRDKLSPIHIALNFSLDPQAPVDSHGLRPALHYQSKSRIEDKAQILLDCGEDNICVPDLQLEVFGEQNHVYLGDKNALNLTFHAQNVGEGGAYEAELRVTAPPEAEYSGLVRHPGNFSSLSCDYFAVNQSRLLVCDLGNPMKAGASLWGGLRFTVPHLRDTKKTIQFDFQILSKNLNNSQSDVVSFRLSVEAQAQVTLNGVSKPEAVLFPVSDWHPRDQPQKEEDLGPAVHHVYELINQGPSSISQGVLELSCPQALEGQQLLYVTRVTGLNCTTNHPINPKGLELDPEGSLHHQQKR
T2 sequence (P08648 895-1049 partner limits assumed): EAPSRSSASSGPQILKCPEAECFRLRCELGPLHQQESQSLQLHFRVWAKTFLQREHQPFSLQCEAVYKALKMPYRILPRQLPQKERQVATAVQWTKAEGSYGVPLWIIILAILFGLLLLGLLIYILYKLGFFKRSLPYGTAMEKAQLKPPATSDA
T2 sequence (P05556 21-798): as the sequence (P05556 21-798) above
T3 sequence (P06756 31-889 limits assumed): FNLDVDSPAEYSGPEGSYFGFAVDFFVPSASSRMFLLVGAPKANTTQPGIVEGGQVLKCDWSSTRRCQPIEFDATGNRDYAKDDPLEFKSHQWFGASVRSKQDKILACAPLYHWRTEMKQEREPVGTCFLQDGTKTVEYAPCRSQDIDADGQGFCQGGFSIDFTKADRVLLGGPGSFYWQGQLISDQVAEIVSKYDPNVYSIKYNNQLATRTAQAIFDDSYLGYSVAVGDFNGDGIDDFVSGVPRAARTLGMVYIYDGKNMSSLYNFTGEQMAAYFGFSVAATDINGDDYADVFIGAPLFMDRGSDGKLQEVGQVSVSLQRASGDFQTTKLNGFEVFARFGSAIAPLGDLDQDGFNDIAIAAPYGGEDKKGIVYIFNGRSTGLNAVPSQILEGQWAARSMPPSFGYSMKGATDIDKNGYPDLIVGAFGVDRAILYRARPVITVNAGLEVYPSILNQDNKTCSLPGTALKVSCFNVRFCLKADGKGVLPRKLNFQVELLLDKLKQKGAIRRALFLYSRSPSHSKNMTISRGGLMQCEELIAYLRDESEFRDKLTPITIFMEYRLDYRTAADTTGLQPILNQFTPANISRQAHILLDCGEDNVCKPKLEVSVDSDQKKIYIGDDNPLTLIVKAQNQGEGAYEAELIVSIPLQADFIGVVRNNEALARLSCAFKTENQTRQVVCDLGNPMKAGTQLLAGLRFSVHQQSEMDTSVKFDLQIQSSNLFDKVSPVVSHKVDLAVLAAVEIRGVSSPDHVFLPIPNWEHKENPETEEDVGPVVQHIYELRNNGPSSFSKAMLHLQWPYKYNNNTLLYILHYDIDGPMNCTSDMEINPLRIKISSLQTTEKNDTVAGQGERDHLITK
T3 sequence (P06756 891-1048 partner limits assumed): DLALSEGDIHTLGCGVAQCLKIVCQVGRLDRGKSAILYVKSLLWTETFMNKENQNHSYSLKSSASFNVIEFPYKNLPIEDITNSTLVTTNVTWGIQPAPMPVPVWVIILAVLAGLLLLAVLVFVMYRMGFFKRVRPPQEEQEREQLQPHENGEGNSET
T3 sequence (P05106 27-788): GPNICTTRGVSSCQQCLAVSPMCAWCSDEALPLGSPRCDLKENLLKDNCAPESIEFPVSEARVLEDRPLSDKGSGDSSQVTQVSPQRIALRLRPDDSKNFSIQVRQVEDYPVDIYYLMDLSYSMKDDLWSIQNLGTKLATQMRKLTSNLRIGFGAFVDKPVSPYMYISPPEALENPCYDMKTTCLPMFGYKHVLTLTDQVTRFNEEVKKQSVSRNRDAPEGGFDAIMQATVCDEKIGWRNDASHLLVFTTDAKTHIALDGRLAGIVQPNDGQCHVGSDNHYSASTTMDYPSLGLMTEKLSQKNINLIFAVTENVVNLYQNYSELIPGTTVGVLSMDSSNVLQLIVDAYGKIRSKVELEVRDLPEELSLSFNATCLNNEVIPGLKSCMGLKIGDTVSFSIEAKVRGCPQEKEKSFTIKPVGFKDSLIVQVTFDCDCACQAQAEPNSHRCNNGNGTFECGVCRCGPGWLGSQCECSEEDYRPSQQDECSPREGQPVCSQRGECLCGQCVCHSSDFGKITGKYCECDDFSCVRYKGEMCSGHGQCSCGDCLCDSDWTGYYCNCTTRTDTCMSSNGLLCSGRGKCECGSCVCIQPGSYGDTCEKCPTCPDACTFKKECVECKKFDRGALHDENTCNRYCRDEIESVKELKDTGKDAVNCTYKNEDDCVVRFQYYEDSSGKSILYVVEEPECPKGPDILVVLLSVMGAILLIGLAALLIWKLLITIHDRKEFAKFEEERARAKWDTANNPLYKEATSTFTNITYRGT

On to AVNECDIT [pep330], for which the “effect of peptide on adherent cells on plates containing ADAM 23” value in [1] is “significant loss of adherent cells”.
The same measure, in the same setting: under DCVTNIAE [pep331, reference compound] stands “this effect was not observed”.
“GST: glutathione S-transferase, control protein for the fusion protein [reference compound]”: the “cell adhesion to wells coated with the protein” value (from here on “cell adhesion to wells coated”) in experiment [2] was “did not support any significant cell adhesion”. The “angiogenic response (cells in MATRIGEL plug sections)” value in the experiment on endothelial cells (subcutaneous plug, harvested day 7) is “a significant number of cells was not observed”.
For “albumin: albumin used as control coating of wells [reference compound]”, the “cell adhesion to wells coated” value in experiment [2] is reported as “did not support any significant cell adhesion”.
Still for that read-out and setting: under fibronectin [reference compound] stands “promoted cell adhesion”.

B1: ADAM 23-GST: recombinant ADAM 23 disintegrin domain expressed as a GST fusion protein in E. coli, about 40 kDa (protein)
chain: KLFEPTECGNGYVEAGEECDCGFHVECYGLCCKKCSLSNGAHCSDGPCCNNTSCLFQPRGYECRDAVNECDITEYCTGDSGQCPPNLHKQD
modifications: left off: a dimerising Fc or GST
notes: recombinant ADAM 23 disintegrin domain expressed as a GST fusion protein in E. coli, about 40 kDa
B1: the “dose dependence of ADAM 23-promoted cell adhesiveness” value in experiment [2] is listed as “dose-dependent”. In addition, the “attachment of cells in the presence of divalent cations” value in [2] (Mn2+ and Mg2+) was “stimulated”. For the same molecule, the “cell adhesion to wells coated” value in experiment [2] was “promoted cell adhesion”. Also, the “ADAM 23-mediated adhesion” value in the experiment on HT1080, in the experiment on HeLa and in the experiment on T47D was “no significant ADAM 23-mediated adhesion” each time. Further, the “interaction with purified integrin” value with α1β1 and in the experiment with α5β1 was “did not reveal any evidence of interaction” each time. In addition, the “bound αvβ3 integrin (αv and β3 bands) on protein-containing beads” value in the experiment with αvβ3 integrin is recorded as “detected”. Moreover, the “dose dependence of angiogenic response” value with endothelial cells (4, 20.5 or 61.5 μg/plug, day 7) is “dose-dependent”. Also, the “cell types in plug sections (microscopic histologic analyses)” value in the experiment on endothelial cells (day 7, hematoxylin-eosin) is “both endothelial and smooth muscle cells were present”.
